molecular target: BTN3A expressed at the cell surface (human), O00481; assay: cell-based or functional assay
Sequence (O00481 30-513): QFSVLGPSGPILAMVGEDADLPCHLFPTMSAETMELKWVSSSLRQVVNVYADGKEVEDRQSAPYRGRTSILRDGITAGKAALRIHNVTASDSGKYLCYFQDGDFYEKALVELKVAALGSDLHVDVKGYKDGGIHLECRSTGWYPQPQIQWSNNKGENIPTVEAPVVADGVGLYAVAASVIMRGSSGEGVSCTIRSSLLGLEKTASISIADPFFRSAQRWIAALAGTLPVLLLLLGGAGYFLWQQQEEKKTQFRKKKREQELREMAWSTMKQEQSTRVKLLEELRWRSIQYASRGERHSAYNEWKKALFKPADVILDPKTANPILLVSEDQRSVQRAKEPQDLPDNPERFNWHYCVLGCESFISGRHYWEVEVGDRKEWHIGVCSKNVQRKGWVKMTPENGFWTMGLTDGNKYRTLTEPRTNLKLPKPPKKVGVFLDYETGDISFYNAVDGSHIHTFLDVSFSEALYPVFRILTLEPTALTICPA

| Binder | Jurkat-Vy9Vo2 TCR MOP activation at 0.5 nM (fold-change to medium) | Jurkat-Vy9Vo2 TCR MOP activation at 5 nM (fold-change to medium) |
| --- | --- | --- |
| bsAb026 (bispecific antibody) heavy: QVQLVQSGAEVKKPGASVKLSCKASGYIFTRYYMYWVKQRPGQGLEWIGEINPNNGGTKFNEKFKNRATLTVDKSISTAYMELSRLRSDDTAVYYCSREDDYDGTPFAMDYWGQGTLVTVSSASTKGPSVFPLAPSSKSTSGGTAALGCLVKDYFPEPVTVSWNSGALTSGVHTFPAVLQSSGLYSLSSVVTVPSSSLGTQTYICNVNHKPSNTKVDKRVEPKSCDKTHTCPPCPAPEFEGGPSVFLFPPKPKDTLMISRTPEVTCVVVDVSHEDPEVKFNWYVDGVEVHNAKTKPREEQYNSTYRVVSVLTVLHQDWLNGKEYKCKVSNKALPASIEKTISKAKGQPREPQVYTLPPSREEMTKNQVSLTCLVKGFYPSDIAVEWESNGQPENNYKTTPPVLDSDGSFFLYSKLTVDKSRWQQGNVFSCSVMHEALHNHYTQKSLSLSPGGGGGSGGGGSGGGGSGGGGSQVQLVQSGVEVKKPGASVKVSCKASGYTFTNYYMYWVRQAPGQGLEWMGGINPSNGGTNFNEKFKNRVTLTTDSSTTTAYMELKSLQFDDTAVYYCARRDYRFDMGFDYWGQGTTVTVSSASTKGPSVFPLAPSSKSTSGGTAALGCLVKDYFPEPVTVSWNSGALTSGVHTFPAVLQSSGLYSLSSVVTVPSSSLGTQTYICNVNHKPSNTKVDKKVEPKSCDKTHTGGSSGSGSGSTGTSSSGTGTSAGTTGTSASTSGSGSGGGGGSGGGGSAGGEIVLTQSPATLSLSPGERATLSCRASKGVSTSGYSYLHWYQQKPGQAPRLLIYLASYLESGVPARFSGSGSGTDFTLTISSLEPEDFAVYYCQHSRDLPLTFGGGTKVEIKRTVAAPSVFIFPPSDEQLKSGTASVVCLLNNFYPREAKVQWKVDNALQSGNSQESVTEQDSKDSTYSLSSTLTLSKADYEKHKVYACEVTHQGLSSPVTKSFNRGEC light: not shown | 2.9 | 1.4 |
| bsAb033 (bispecific antibody, not shown: small tags and cut ends) heavy (part 1 of 2): QVQLVQSGAEVKKPGASVKLSCKASGYIFTRYYMYWVKQRPGQGLEWIGEINPNNGGTKFNEKFKNRATLTVDKSISTAYMELSRLRSDDTAVYYCSREDDYDGTPFAMDYWGQGTLVTVSS heavy (part 2 of 2): GGGGSGGGGSGGGGSGGGGSQVQLVQSGVEVKKPGASVKVSCKASGYTFTNYYMYWVRQAPGQGLEWMGGINPSNGGTNFNEKFKNRVTLTTDSSTTTAYMELKSLQFDDTAVYYCARRDYRFDMGFDYWGQGTTVTVSSGGGGSGGGGSGGGGSGGGGSEIVLTQSPATLSLSPGERATLSCRASKGVSTSGYSYLHWYQQKPGQAPRLLIYLASYLESGVPARFSGSGSGTDFTLTISSLEPEDFAVYYCQHSRDLPLTFGGGTKVEIK heavy: QVQLVQSGAEVKKPGASVKLSCKASGYIFTRYYMYWVKQRPGQGLEWIGEINPNNGGTKFNEKFKNRATLTVDKSISTAYMELSRLRSDDTAVYYCSREDDYDGTPFAMDYWGQGTLVTVSS light: not shown | 7.8 | 7.1 |
| bsAb038 (bispecific antibody, not shown: small tags and cut ends) heavy (part 1 of 2): QVQLVQSGAEVKKPGASVKLSCKASGYIFTRYYMYWVKQRPGQGLEWIGEINPNNGGTKFNEKFKNRATLTVDKSISTAYMELSRLRSDDTAVYYCSREDDYDGTPFAMDYWGQGTLVTVSS heavy (part 2 of 2): GGGGSGGGGSGGGGSGGGGSEIVLTQSPATLSLSPGERATLSCRASKGVSTSGYSYLHWYQQKPGQAPRLLIYLASYLESGVPARFSGSGSGTDFTLTISSLEPEDFAVYYCQHSRDLPLTFGGGTKVEIKGGGGSGGGGSGGGGSGGGGSQVQLVQSGVEVKKPGASVKVSCKASGYTFTNYYMYWVRQAPGQGLEWMGGINPSNGGTNFNEKFKNRVTLTTDSSTTTAYMELKSLQFDDTAVYYCARRDYRFDMGFDYWGQGTTVTVSS heavy: QVQLVQSGAEVKKPGASVKLSCKASGYIFTRYYMYWVKQRPGQGLEWIGEINPNNGGTKFNEKFKNRATLTVDKSISTAYMELSRLRSDDTAVYYCSREDDYDGTPFAMDYWGQGTLVTVSS light: not shown | 8.5 | 7.2 |
| bsAb025 (bispecific antibody) heavy: QVQLVQSGVEVKKPGASVKVSCKASGYTFTNYYMYWVRQAPGQGLEWMGGINPSNGGTNFNEKFKNRVTLTTDSSTTTAYMELKSLQFDDTAVYYCARRDYRFDMGFDYWGQGTTVTVSSASTKGPSVFPLAPSSKSTSGGTAALGCLVKDYFPEPVTVSWNSGALTSGVHTFPAVLQSSGLYSLSSVVTVPSSSLGTQTYICNVNHKPSNTKVDKKVEPKSCDKTHTGGSSGSGSGSTGTSSSGTGTSAGTTGTSASTSGSGSGGGGGSGGGGSAGGEIVLTQSPATLSLSPGERATLSCRASKGVSTSGYSYLHWYQQKPGQAPRLLIYLASYLESGVPARFSGSGSGTDFTLTISSLEPEDFAVYYCQHSRDLPLTFGGGTKVEIKRTVAAPSVFIFPPSDEQLKSGTASVVCLLNNFYPREAKVQWKVDNALQSGNSQESVTEQDSKDSTYSLSSTLTLSKADYEKHKVYACEVTHQGLSSPVTKSFNRGECGGGGSGGGGSGGGGSGGGGSQVQLVQSGAEVKKPGASVKLSCKASGYIFTRYYMYWVKQRPGQGLEWIGEINPNNGGTKFNEKFKNRATLTVDKSISTAYMELSRLRSDDTAVYYCSREDDYDGTPFAMDYWGQGTLVTVSSASTKGPSVFPLAPSSKSTSGGTAALGCLVKDYFPEPVTVSWNSGALTSGVHTFPAVLQSSGLYSLSSVVTVPSSSLGTQTYICNVNHKPSNTKVDKRVEPKSCDKTHTCPPCPAPEFEGGPSVFLFPPKPKDTLMISRTPEVTCVVVDVSHEDPEVKFNWYVDGVEVHNAKTKPREEQYNSTYRVVSVLTVLHQDWLNGKEYKCKVSNKALPASIEKTISKAKGQPREPQVYTLPPSREEMTKNQVSLTCLVKGFYPSDIAVEWESNGQPENNYKTTPPVLDSDGSFFLYSKLTVDKSRWQQGNVFSCSVMHEALHNHYTQKSLSLSPG light: not shown | 1 | 1.2 |

Further lines, results first:

| Jurkat-Vy9Vo2 TCR MOP activation at 0.5 nM (fold-change to medium) | Jurkat-Vy9Vo2 TCR MOP activation at 5 nM (fold-change to medium) | Binder |
| --- | --- | --- |
| 5.9 | 6.2 | bsAb049 (bispecific antibody, not shown: small tags and cut ends) heavy 1: QVQLVQSGVEVKKPGASVKVSCKASGYTFTNYYMYWVRQAPGQGLEWMGGINPSNGGTNFNEKFKNRVTLTTDSSTTTAYMELKSLQFDDTAVYYCARRDYRFDMGFDYWGQGTTVTVSSGGGGSGGGGSGGGGSGGGGSEIVLTQSPATLSLSPGERATLSCRASKGVSTSGYSYLHWYQQKPGQAPRLLIYLASYLESGVPARFSGSGSGTDFTLTISSLEPEDFAVYYCQHSRDLPLTFGGGTKVEIKGGGGSGGGGSGGGGSGGGGSQVQLVQSGAEVKKPGASVKLSCKASGYIFTRYYMYWVKQRPGQGLEWIGEINPNNGGTKFNEKFKNRATLTVDKSISTAYMELSRLRSDDTAVYYCSREDDYDGTPFAMDYWGQGTLVTVSS heavy 2: QVQLVQSGAEVKKPGASVKLSCKASGYIFTRYYMYWVKQRPGQGLEWIGEINPNNGGTKFNEKFKNRATLTVDKSISTAYMELSRLRSDDTAVYYCSREDDYDGTPFAMDYWGQGTLVTVSS light: not shown |
| 4 | 5.8 | bsAb047 (bispecific antibody, not shown: small tags and cut ends) heavy 1: EIVLTQSPATLSLSPGERATLSCRASKGVSTSGYSYLHWYQQKPGQAPRLLIYLASYLESGVPARFSGSGSGTDFTLTISSLEPEDFAVYYCQHSRDLPLTFGGGTKVEIKGGGGSGGGGSGGGGSGGGGSQVQLVQSGVEVKKPGASVKVSCKASGYTFTNYYMYWVRQAPGQGLEWMGGINPSNGGTNFNEKFKNRVTLTTDSSTTTAYMELKSLQFDDTAVYYCARRDYRFDMGFDYWGQGTTVTVSSGGGGSGGGGSGGGGSGGGGSQVQLVQSGAEVKKPGASVKLSCKASGYIFTRYYMYWVKQRPGQGLEWIGEINPNNGGTKFNEKFKNRATLTVDKSISTAYMELSRLRSDDTAVYYCSREDDYDGTPFAMDYWGQGTLVTVSS heavy 2: QVQLVQSGAEVKKPGASVKLSCKASGYIFTRYYMYWVKQRPGQGLEWIGEINPNNGGTKFNEKFKNRATLTVDKSISTAYMELSRLRSDDTAVYYCSREDDYDGTPFAMDYWGQGTLVTVSS light: not shown |
